Reference: patent US9994830B2, “Methods for modulating cyclic nucleotide-mediated signaling in cardiac myocytes and compositions” (The United States of America as Represented by the …, priority 2014, dated 2018)

Target: T1, rSERCA2 (Homo sapiens, UniProt P16615)
T1 construct: purchased Abnova
Experiment: Co-immunoprecipitation of Flag-tagged rhPDE3A variants and rSERCA2 after incubation with or without rPKAc
Format: binding
Conditions: for PKA-stimulated (phosphorylation-dependent) interaction with SERCA2: serine-to-alanine mutants of rhPDE3A1, 50 units rPKAc, co-IP
Text: FIG. 11 a-d. rPKAc phosphorylates rhPDE3A and increases its interactions rSERCA2. A. Schemes representing PDE3A1 [NHR1: trans-membrane domain (obligatory membrane insertion domain); NHR2: membrane association domain; CCR: conserved C-terminal catalytic region; P1-4: predicted PKA phosphorylation sites; rhPDE3A and truncated mutants (PDE3A2, PDE3A-A510, PDE3A-RD), and rSERCA2 (1042 amino acids, 3-77 cation transporter N-terminal; 93-341, E1-E2 ATPase; 345-724, haloacid dehydrogenase like hydrolase; 819-991, cation transporter ATPase C-terminus). B. Putative PKA phosphorylation sites of PDE3A designated with asterisks. C-D. Purified rSERCA2 (150 ng) (Abnova) and 50 units of Flag-tagged rhPDE3A1 truncated mutants [rhPDE3A2, rhPDE3A-A510, and similarly expressed rhPDE3A-RD (aa 146-484)](FIG. 11D) or mutants lacking the PKA putative phosphorylation site mutants of rhPDE3A1 [Ser292/293A (M1), S312A (M2), S428A (M3), S438A (M4), S292A/293A/312A/438A (M5)](FIG. 11C) were incubated with or without 50 units of rPKAc at 30° C. for 30 min and 5 mM MgCl2 in phosphorylation buffer. Proteins were immunoprecipitated with anti-Flag antibodies and immunoblotted with anti-SERCA2 (upper panel), or anti-Flag (middle panel). Lower panel: input control (SERCA2). Shown are representative blots from three independent experiments. (RD: regulatory domain; AA: amino acid).
Flag-tagged rhPDE3A1 and its phosphorylation site mutants [rhPDE3A1-S292A/293A (M1), rhPDE3A1-S312A (M2), rhPDE3A1-S428A (M3), rhPDE3A1-S438A (M4), rhPDE3A1-S292A/293A/312A/438A (M5) open reading frame [accession #NP_000912] was synthesized by Genscript, Inc (Piscataway, N.J.), subcloned into pAcSG2 baculoviral expression vector. Flag-tagged rhPDE3A variants and phosphorylation site mutants were expressed in SF21 cells [(10-20)×106 SF21 cells/75-cm2 flask] as described (19,20). SF21 cells were harvested, sedimented (10 min, 1000×g, 4° C.), washed twice with ice-cold PBS, resuspended, homogenized (in a Dounce homogenizer) in buffer B and sonicated […]. A comparison of the translated sequences of human AKAP18γ (AC NP_057461 and AK300587; 348 aa residues) and rat AKAP18δ (3) (AC QJP77; 352 aa residues) indicate that eight of the first twelve aa residues of human AKAP18γ and rat AKAP18δ are identical, and that the proteins are homologous (˜74% aa identity). SF21 cell extracts, which contained his-tagged-rAKAP18δ, were prepared as described above. Flag-tagged rhPDE3A1 (usually 50 arbitrary (u) units) was incubated (30 min, 30° C.) with rAKAP18δ (200 μl, containing 50 ng of recombinant protein), with or without different concentrations of rPKAc (final volume, 300 μl) in buffer B containing 2 mM DTT and 200 μM ATP. Reactions were stopped by dilution of reaction mixtures to 1.0 ml with buffer B containing 1 mg/ml SF21 cell lysates, and cleared as described above (cf ‘Immunoprecipitation and immunoblotting’ subsection). His-tagged rAKAP18δ was immunoprecipitated with anti-his Mab Mag-beads (Genscript). Anti-his Mab Mag beads-bound immunoprecipitates were washed, collected, and anti-his Mab Mag-beads-bound proteins were eluted by boiling in Laemmli's SDS buffer (100 μl) and samples (15 μl) of immunoprecipitated proteins as well as of reaction mixtures (‘input proteins’) were immunoblotted with indicated antibodies as described above.

T1 sequence (P16615 whole entry): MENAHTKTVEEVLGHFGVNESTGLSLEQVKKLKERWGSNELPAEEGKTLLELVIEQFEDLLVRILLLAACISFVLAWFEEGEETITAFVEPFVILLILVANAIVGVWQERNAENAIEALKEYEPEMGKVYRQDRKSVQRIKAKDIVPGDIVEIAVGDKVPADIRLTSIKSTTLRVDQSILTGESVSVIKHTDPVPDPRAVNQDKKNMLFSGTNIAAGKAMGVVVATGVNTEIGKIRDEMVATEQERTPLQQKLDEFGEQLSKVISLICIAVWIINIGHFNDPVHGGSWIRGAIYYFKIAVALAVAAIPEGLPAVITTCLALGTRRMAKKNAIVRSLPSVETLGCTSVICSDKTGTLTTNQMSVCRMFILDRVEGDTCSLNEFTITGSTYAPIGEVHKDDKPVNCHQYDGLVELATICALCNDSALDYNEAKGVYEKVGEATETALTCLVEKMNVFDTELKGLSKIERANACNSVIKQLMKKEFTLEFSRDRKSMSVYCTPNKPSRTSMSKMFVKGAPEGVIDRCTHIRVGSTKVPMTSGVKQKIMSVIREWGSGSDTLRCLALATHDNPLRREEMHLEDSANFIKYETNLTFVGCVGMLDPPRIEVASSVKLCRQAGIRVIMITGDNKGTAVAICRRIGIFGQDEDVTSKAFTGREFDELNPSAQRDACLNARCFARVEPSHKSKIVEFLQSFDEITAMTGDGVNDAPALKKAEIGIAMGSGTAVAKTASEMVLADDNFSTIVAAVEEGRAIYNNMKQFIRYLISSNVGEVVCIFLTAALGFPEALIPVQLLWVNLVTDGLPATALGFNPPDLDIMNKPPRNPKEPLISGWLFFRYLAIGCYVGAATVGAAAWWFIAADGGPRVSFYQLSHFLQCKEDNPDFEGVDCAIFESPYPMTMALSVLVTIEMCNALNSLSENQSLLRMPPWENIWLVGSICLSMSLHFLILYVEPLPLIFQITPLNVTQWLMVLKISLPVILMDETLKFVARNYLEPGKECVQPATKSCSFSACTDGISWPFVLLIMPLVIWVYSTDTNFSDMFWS

Row | Molecule | co-immunoprecipitation of rSERCA2 with construct (truncated rhPDE3A constructs) | PKA-stimulated (phosphorylation-dependent) interaction with SERCA2
1 | rPDE3A-RD: construct containing only the N-terminal portion of PDE3A1 (aa 146-484), regulatory domain (protein) MGLYLLRAGVRLPLAVALLAACCGGEALVQIGLGVGEDHLLSLPAAGVVLSCLAAATWLVLRLRLGVLMIALTSAVRTVSLISLERFKVAWRPYLAYLAGVLGILLARYVEQILPQSAEAAPREHLGSQLIAGTKEDIPVFKRRRRSSSVVSAEMSGCSSKSHRRTSLPCIPREQLMGHSEWDHKRGPRGSQSSGTSITVDIAVMGEAHGLITDLLADPSLPPNVCTSLRAVSNLLSTQLTFQAIHKPRVNPVTSLSENYTCSDSEESSEKDKLAIPKRLRRSLPPGLLRRVSSTWTTTTSATGLPTLEPAPVRRDRSTSIKLQEAPSSSPDSWNNPVM | co-immunoprecipitated | –
2 | M1: Flag-tagged rhPDE3A1 phosphorylation site mutant S292A/293A (protein, UniProt Q14432 1-1141, looked up, variant S292A S293A, Flag tag, Flag-tagged rhPDE3A1 phosphorylation site mutant S292A/293A) cGMP-inhibited 3',5'-cyclic …: MAVPGDAARVRDKPVHSGVSQAPTAGRDCHHRADPASPRDSGCRGCWGDLVLQPLRSSRKLSSALCAGSLSFLLALLVRLVRGEVGCDLEQCKEAAAAEEEEAAPGAEGGVFPGPRGGAPGGGARLSPWLQPSALLFSLLCAFFWMGLYLLRAGVRLPLAVALLAACCGGEALVQIGLGVGEDHLLSLPAAGVVLSCLAAATWLVLRLRLGVLMIALTSAVRTVSLISLERFKVAWRPYLAYLAGVLGILLARYVEQILPQSAEAAPREHLGSQLIAGTKEDIPVFKRRRRAASVVSAEMSGCSSKSHRRTSLPCIPREQLMGHSEWDHKRGPRGSQSSGTSITVDIAVMGEAHGLITDLLADPSLPPNVCTSLRAVSNLLSTQLTFQAIHKPRVNPVTSLSENYTCSDSEESSEKDKLAIPKRLRRSLPPGLLRRVSSTWTTTTSATGLPTLEPAPVRRDRSTSIKLQEAPSSSPDSWNNPVMMTLTKSRSFTSSYAISAANHVKAKKQSRPGALAKISPLSSPCSSPLQGTPASSLVSKISAVQFPESADTTAKQSLGSHRALTYTQSAPDLSPQILTPPVICSSCGRPYSQGNPADEPLERSGVATRTPSRTDDTAQVTSDYETNNNSDSSDIVQNEDETECLREPLRKASACSTYAPETMMFLDKPILAPEPLVMDNLDSIMEQLNTWNFPIFDLVENIGRKCGRILSQVSYRLFEDMGLFEAFKIPIREFMNYFHALEIGYRDIPYHNRIHATDVLHAVWYLTTQPIPGLSTVINDHGSTSDSDSDSGFTHGHMGYVFSKTYNVTDDKYGCLSGNIPALELMALYVAAAMHDYDHPGRTNAFLVATSAPQAVLYNDRSVLENHHAAAAWNLFMSRPEYNFLINLDHVEFKHFRFLVIEAILATDLKKHFDFVAKFNGKVNDDVGIDWTNENDRLLVCQMCIKLADINGPAKCKELHLQWTDGIVNEFYEQGDEEASLGLPISPFMDRSAPQLANLQESFISHIVGPLCNSYDSAGLMPGKWVEDSDESGDTDDPEEEEEEAPAPNEEETCENNESPKKKTFKRRKIYCQITQHLLQNHKMWKKVIEEEQRLAGIENQSLDQTPQSHSSEQIQAIKEEEEEKGKPRGEEIPTQKPDQ | – | markedly diminished
3 | M5: Flag-tagged rhPDE3A1 phosphorylation site mutant S292A/293A/312A/438A (protein, UniProt Q14432 1-1141, looked up, variant S292A S293A S312A S438A, Flag tag, Flag-tagged rhPDE3A1 phosphorylation site mutant S292A/293A/312A/438A) cGMP-inhibited 3',5'-cyclic …: MAVPGDAARVRDKPVHSGVSQAPTAGRDCHHRADPASPRDSGCRGCWGDLVLQPLRSSRKLSSALCAGSLSFLLALLVRLVRGEVGCDLEQCKEAAAAEEEEAAPGAEGGVFPGPRGGAPGGGARLSPWLQPSALLFSLLCAFFWMGLYLLRAGVRLPLAVALLAACCGGEALVQIGLGVGEDHLLSLPAAGVVLSCLAAATWLVLRLRLGVLMIALTSAVRTVSLISLERFKVAWRPYLAYLAGVLGILLARYVEQILPQSAEAAPREHLGSQLIAGTKEDIPVFKRRRRAASVVSAEMSGCSSKSHRRTALPCIPREQLMGHSEWDHKRGPRGSQSSGTSITVDIAVMGEAHGLITDLLADPSLPPNVCTSLRAVSNLLSTQLTFQAIHKPRVNPVTSLSENYTCSDSEESSEKDKLAIPKRLRRSLPPGLLRRVASTWTTTTSATGLPTLEPAPVRRDRSTSIKLQEAPSSSPDSWNNPVMMTLTKSRSFTSSYAISAANHVKAKKQSRPGALAKISPLSSPCSSPLQGTPASSLVSKISAVQFPESADTTAKQSLGSHRALTYTQSAPDLSPQILTPPVICSSCGRPYSQGNPADEPLERSGVATRTPSRTDDTAQVTSDYETNNNSDSSDIVQNEDETECLREPLRKASACSTYAPETMMFLDKPILAPEPLVMDNLDSIMEQLNTWNFPIFDLVENIGRKCGRILSQVSYRLFEDMGLFEAFKIPIREFMNYFHALEIGYRDIPYHNRIHATDVLHAVWYLTTQPIPGLSTVINDHGSTSDSDSDSGFTHGHMGYVFSKTYNVTDDKYGCLSGNIPALELMALYVAAAMHDYDHPGRTNAFLVATSAPQAVLYNDRSVLENHHAAAAWNLFMSRPEYNFLINLDHVEFKHFRFLVIEAILATDLKKHFDFVAKFNGKVNDDVGIDWTNENDRLLVCQMCIKLADINGPAKCKELHLQWTDGIVNEFYEQGDEEASLGLPISPFMDRSAPQLANLQESFISHIVGPLCNSYDSAGLMPGKWVEDSDESGDTDDPEEEEEEAPAPNEEETCENNESPKKKTFKRRKIYCQITQHLLQNHKMWKKVIEEEQRLAGIENQSLDQTPQSHSSEQIQAIKEEEEEKGKPRGEEIPTQKPDQ | – | markedly diminished
4 | M2: Flag-tagged rhPDE3A1 phosphorylation site mutant S312A (protein, UniProt Q14432 1-1141, looked up, variant S312A, Flag tag, Flag-tagged rhPDE3A1 phosphorylation site mutant S312A) cGMP-inhibited 3',5'-cyclic …: MAVPGDAARVRDKPVHSGVSQAPTAGRDCHHRADPASPRDSGCRGCWGDLVLQPLRSSRKLSSALCAGSLSFLLALLVRLVRGEVGCDLEQCKEAAAAEEEEAAPGAEGGVFPGPRGGAPGGGARLSPWLQPSALLFSLLCAFFWMGLYLLRAGVRLPLAVALLAACCGGEALVQIGLGVGEDHLLSLPAAGVVLSCLAAATWLVLRLRLGVLMIALTSAVRTVSLISLERFKVAWRPYLAYLAGVLGILLARYVEQILPQSAEAAPREHLGSQLIAGTKEDIPVFKRRRRSSSVVSAEMSGCSSKSHRRTALPCIPREQLMGHSEWDHKRGPRGSQSSGTSITVDIAVMGEAHGLITDLLADPSLPPNVCTSLRAVSNLLSTQLTFQAIHKPRVNPVTSLSENYTCSDSEESSEKDKLAIPKRLRRSLPPGLLRRVSSTWTTTTSATGLPTLEPAPVRRDRSTSIKLQEAPSSSPDSWNNPVMMTLTKSRSFTSSYAISAANHVKAKKQSRPGALAKISPLSSPCSSPLQGTPASSLVSKISAVQFPESADTTAKQSLGSHRALTYTQSAPDLSPQILTPPVICSSCGRPYSQGNPADEPLERSGVATRTPSRTDDTAQVTSDYETNNNSDSSDIVQNEDETECLREPLRKASACSTYAPETMMFLDKPILAPEPLVMDNLDSIMEQLNTWNFPIFDLVENIGRKCGRILSQVSYRLFEDMGLFEAFKIPIREFMNYFHALEIGYRDIPYHNRIHATDVLHAVWYLTTQPIPGLSTVINDHGSTSDSDSDSGFTHGHMGYVFSKTYNVTDDKYGCLSGNIPALELMALYVAAAMHDYDHPGRTNAFLVATSAPQAVLYNDRSVLENHHAAAAWNLFMSRPEYNFLINLDHVEFKHFRFLVIEAILATDLKKHFDFVAKFNGKVNDDVGIDWTNENDRLLVCQMCIKLADINGPAKCKELHLQWTDGIVNEFYEQGDEEASLGLPISPFMDRSAPQLANLQESFISHIVGPLCNSYDSAGLMPGKWVEDSDESGDTDDPEEEEEEAPAPNEEETCENNESPKKKTFKRRKIYCQITQHLLQNHKMWKKVIEEEQRLAGIENQSLDQTPQSHSSEQIQAIKEEEEEKGKPRGEEIPTQKPDQ | – | slightly decreased
